Reference: the nanobody polyreactivity screen of Harvey et al. (2022)

Test: yeast display, Sf9 membrane polyspecificity reagent, FACS + sequencing; frameworks hold sequencing errors
Summary of the method: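 A synthetic nanobody library was expressed on Saccharomyces cerevisiae BJ5465 by galactose induction for 36–48 hours. The library was stained for 1 hour at 4 °C with 10% biotinylated, detergent-solubilized Sf9 membrane reagent and enriched with streptavidin microbeads before FACS. Low and high (top ~1%) gates were set on anti-HA fluorescence for expression and streptavidin fluorescence for reagent binding, and each polyreactivity label reflects the gate of origin.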

Row | Sequence | polyreactivity (PSR sort gate)
1 | QVQLVDSGGGLVQAGGTLRLSCAASGSTFRYYAMGWYRQAPGKERELVAAISWNGGRTYYADSVKGRFTISRDNAKNTVYLQMNSLKPEDSAVYYCDAVHYVAYYGYDFWGQGTQVTVSS | high polyreactivity
2 | QVQLVDSGGGLVQAGVRLRLSCAASGNIFSAYAMGWYRQAPGKERELVASIDWNGGRTYYADSVKGRFTISRDNAKNTVYLQMNSLKPEDTAVYYCNAGYSYRKYDYLGQGTQVTVSS | high polyreactivity
3 | QVQLVDSGGGLVQAGVSLRISCAASGSTFYANAMGWYRQAPGKERELVATITSSGTSTYYGDSVKGRFTISRDNAKNTFYLQMNSLKPEDIAVYYCAAEYSLLYWEFDYWGQGTQVTVSS | low polyreactivity
4 | QVQLVDSGGGLVQEGGRLRLSCAASGSIYDQYDMGWYRQAPGKERELVAAISNRGGCTYYADSVKGRFTISRDNAKNTVYLQMNSLKPEDTAVYYCAARKYWGYGTRYFYWGQGTQVTVSS | high polyreactivity
5 | QVQLVDSGGGLVQEGGSLRLRCAASGYTFDWYAMGWYRQAPGKERELVAAINSGGGTYYADSVKGRFTISRDNAKNSVYLQMNSLKPEDTAVYYCAKYTYDYWGQGTQVTVSS | low polyreactivity
6 | QVQLVDSGGGLVQEGGSLRLSCAASGRIFWYYDMGWYRQAPGKERELVAAISQRGGSTYYADSVKGRFTISRDNAKNTVYLQMNSLKPEDTAVYYCAKRNPYWATREYWGQGTQVTVSS | high polyreactivity
7 | QVQLVDSGVGLVQAGGRLRLSCAASGRIFPFNAMGWYRQSPGKERELVAAITSSGGRTYYADSVKGRFTISRDNAKNTVYLQMNSLKPVDTAVYYCAATLVRRARSGPMGYWGQGTQVTVSS | high polyreactivity
8 | QVQLVDSRGGLVQAGGSLRLSCAASGNTFGFNAMGWNRQARGKERHLVAAITWSVGRTYYADSVKRRFTISRDHAKNTVYLEMNSLKPEDTAVYYCAKDFEAGDDYFAYDYWGQGTQVTVSS | low polyreactivity
9 | QVQLVDSRGGLVQAGGSLRLSCAASGSTFVNYAMGWYRQAPGKAWELVAAITANGGRTYYADSVKGRFTISRDNAKNTVYLQMNSLKPEDTAVYYCNTESNLYRRRRNYWGQGTQVTVSS | low polyreactivity
10 | QVQLVDSSGGLVQAGGSLSLSCAASGRTFGFYAMGWYIQAPGSERELVASITWRGGRKYYADSEMGSFTISRDNAKNTCYLQMISLKPEDTAVYYCAAAYHPYQGVTGHDGGYDYWGQGTQVTVSS | low polyreactivity
11 | QVQLVDSVGGLVQAGGSLSLSCAASGLIFASNAMGWYRQAPGKERELLATIRRGTSTNYADSVKGRFTISRDNAKNTVYLEMNSLKPEDTAVYYCAADGYTYKFDYWGQGTQVTVSS | low polyreactivity
12 | QVQLVDSWGGLVQAGGSLRLSCAASGRTSRYAMGWYRQAPGKERELVAAITSSGGRTYYADSVKGRFTISRDNAKNTVYLQMNSLKPEDTAVYYCAAGYLLWRTWDYAAGHNYWGQGTQVTVSS | high polyreactivity
13 | QVQLVDTGGGLVQAGGSLRLICAASGLTFSYNAMGWYRQAPGKERELVAAITVSGGRTYYADSVKGRFTISRDNAKNTVYLQMNSLKAEDTAVYYCNADYDEGYYGYLRYDYDYWGQGTQVTVSS | high polyreactivity
14 | QVQLVDTGGGLVQAGGSLRLSCAASGFTFRWYAMGWYRQAPGKERELVAAISWRGGSTYYADSVKGRFTISRDNAKTTVYLQMNSLKPEDTAVYYCAALRYWISLSSYEYWGQGTQVTVSS | high polyreactivity
15 | QVQLVDTGGGLVQAGGSLRLSCAASGSIFHNNSRGWYRQATGKERELVAAIRRSGGSTSYADSVKGRFTISLDNAKNTVYLQMNSLKPEDTAVYYCNKRFVRFSPEYGYWGQGNQVTVSS | low polyreactivity
16 | QVQLVDTGGGLVQAGGSLRLSCSASGSIFEGYAMGWYRKAPGKERELVARITSDDDSTYYADSVKGRFTISRDKEKNTVYLQMNSLKAEDTAVYYCNADYYWTSLAMDSWGQGTQVTVSS | low polyreactivity
17 | QVQLVEAGGGLVKAGGSLRLSCAASGYIFRFYALGWYRQAPGKERELVAAISRSGSRTYYADSVKGRFTISRDNAKNTVYLQMNSLKPEDTAVYYCAAVTRGLRFDYWGQGTQVTVSS | high polyreactivity
